In assay [1] the target is T1, Cut7MD (fission yeast kinesin-5 Cut7 motor domain) (Schizosaccharomyces pombe, UniProt P24339).
T1 construct: monomeric motor domain, residues 67-432, lacks N-terminal extension; His6 tag removed by TEV; expressed in E. coli BL21*(DE3)
T1 sequence (P24339 67-432): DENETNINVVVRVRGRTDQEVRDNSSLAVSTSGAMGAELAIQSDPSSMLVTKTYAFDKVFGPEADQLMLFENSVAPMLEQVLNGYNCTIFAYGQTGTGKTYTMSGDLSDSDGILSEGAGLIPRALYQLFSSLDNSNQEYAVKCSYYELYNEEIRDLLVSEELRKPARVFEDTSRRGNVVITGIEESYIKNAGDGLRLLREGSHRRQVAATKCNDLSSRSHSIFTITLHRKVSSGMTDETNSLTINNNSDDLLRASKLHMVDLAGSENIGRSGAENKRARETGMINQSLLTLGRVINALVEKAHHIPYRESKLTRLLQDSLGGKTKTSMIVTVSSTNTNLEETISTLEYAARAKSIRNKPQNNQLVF
In words: microtubule-stimulated steady-state ATPase, enzyme-coupled. The following applies: 3.8 μM motor; 100 nM mammalian (bovine) microtubules. The assay is classed as biochemical.

Assay [2] deals with T1, Cut7MD (fission yeast kinesin-5 Cut7 motor domain). As to the kind of experiment: microtubule-stimulated ATPase, pyruvate kinase / lactate dehydrogenase coupled. Type of assay: biochemical. The following applies: 5 mM ATP; epothilone-stabilised S. pombe microtubules; 1 mM MgCl2, pH 8.0, 32 °C.
The target of assay [3] is S. pombe tubulin microtubules (Sp_tub MTs), epothilone-stabilised (S. pombe) (UniProt P04688).
In assay [4] the target is T1, Cut7MD (fission yeast kinesin-5 Cut7 motor domain). As to the kind of experiment: cryo-EM structure, […] Å. Type of assay: binding. The following applies: nucleotide pocket, with Mg; bound to S. pombe microtubules.
In assay [5] the target is Mammalian brain tubulin microtubules (Mam_tub MTs), paclitaxel-stabilised (bovine), Q6B856.
Chain of Mammalian brain tubulin microtubules (Mam_tub MTs), paclitaxel-stabilised (bovine), Q6B856 (Q6B856 whole entry, looked up): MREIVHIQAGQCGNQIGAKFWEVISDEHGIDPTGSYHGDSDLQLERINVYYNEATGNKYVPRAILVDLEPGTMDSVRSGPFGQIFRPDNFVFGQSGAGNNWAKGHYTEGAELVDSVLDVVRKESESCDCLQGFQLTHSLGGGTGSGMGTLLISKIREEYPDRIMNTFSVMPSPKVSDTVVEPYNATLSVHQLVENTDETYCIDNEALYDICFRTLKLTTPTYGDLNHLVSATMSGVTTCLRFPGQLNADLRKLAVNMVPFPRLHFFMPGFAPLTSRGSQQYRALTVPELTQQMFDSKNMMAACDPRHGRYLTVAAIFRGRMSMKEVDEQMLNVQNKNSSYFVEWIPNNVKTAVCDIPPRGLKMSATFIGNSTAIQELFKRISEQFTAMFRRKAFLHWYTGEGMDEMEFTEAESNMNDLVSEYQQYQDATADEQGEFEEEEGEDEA

Chain of S. pombe tubulin microtubules (Sp_tub MTs), epothilone-stabilised (S. pombe) (P04688 whole entry, chain 1 of 2, the tested form may be a part): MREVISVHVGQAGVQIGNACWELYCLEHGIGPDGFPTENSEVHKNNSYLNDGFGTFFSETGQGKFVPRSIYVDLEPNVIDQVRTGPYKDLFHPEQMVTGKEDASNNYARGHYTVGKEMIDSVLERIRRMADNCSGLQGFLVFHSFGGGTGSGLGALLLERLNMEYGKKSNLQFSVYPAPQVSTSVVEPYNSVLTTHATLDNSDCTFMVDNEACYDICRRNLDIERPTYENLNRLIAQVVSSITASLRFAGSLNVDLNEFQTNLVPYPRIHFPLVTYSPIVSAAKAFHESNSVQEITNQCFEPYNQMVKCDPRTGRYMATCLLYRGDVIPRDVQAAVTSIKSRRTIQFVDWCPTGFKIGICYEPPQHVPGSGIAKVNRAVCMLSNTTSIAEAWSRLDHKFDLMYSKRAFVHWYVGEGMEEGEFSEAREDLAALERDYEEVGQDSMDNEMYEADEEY
Chain of S. pombe tubulin microtubules (Sp_tub MTs), epothilone-stabilised (S. pombe) (P05219 whole entry, chain 2 of 2, further chain, the tested form may be a part): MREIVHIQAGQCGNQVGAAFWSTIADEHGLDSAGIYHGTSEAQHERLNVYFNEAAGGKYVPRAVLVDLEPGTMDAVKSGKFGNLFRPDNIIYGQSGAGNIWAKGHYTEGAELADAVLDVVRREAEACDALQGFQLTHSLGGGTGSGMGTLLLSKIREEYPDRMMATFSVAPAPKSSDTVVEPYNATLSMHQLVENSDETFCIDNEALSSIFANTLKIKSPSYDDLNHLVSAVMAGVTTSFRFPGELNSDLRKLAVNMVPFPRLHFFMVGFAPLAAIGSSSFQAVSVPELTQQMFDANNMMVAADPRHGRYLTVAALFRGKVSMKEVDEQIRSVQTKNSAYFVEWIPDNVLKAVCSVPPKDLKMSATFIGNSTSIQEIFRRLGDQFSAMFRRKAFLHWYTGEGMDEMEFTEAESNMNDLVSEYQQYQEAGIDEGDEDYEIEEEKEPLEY

On to `N[C@@H](CSC(c1ccccc1)(c1ccccc1)c1ccccc1)C(=O)O` [STLC, (+)-S-trityl-L-cysteine], for which the “% of their uninhibited rates at 2 μM and 20 μM” value in assay [1] is on record as “Cut7MD is not detectably inhibited by STLC”.

Regarding `Nc1ncnc2c1ncn2[C@@H]1O[C@H](COP(=O)(O)OP(=O)(O)OP(=O)(O)O)[C@@H](O)[C@H]1O` [ATP], the “microtubule-stimulated ATPase, pyruvate kinase / lactate dehydrogenase coupled” value in assay [2] is “we measured the steady-state ATPase activity of Cut7MD on Sp_tub MTs and Mam_tub MTs”.

With “Cut7 motor domain (Cut7MD), residues 67–432 of the fission yeast kinesin-5 Cut7 (from UniProt P24339 67-432) (domain or fragment)”, in assay [3], the K0.5MT of the MT-stimulated steady-state ATPase of Cut7MD (Hanes–Woolf plot) worked out at 13.4 nM, the K0.5MT of the MT-stimulated steady-state ATPase of Cut7MD (Michaelis–Menten fit) was determined as 13.9 nM, the Vmax of the MT-stimulated steady-state ATPase of Cut7MD (Hanes–Woolf plot) came to 1.17 ATP/s and the Vmax of the MT-stimulated steady-state ATPase of Cut7MD (Michaelis–Menten fit) stood at 1.14 ATP/s.

On to `Nc1ncnc2c1ncn2[C@@H]1O[C@H](COP(=O)(O)OP(=O)(O)NP(=O)(O)O)[C@@H](O)[C@H]1O` [AMPPNP, adenosine 5′-(β,γ-imido)triphosphate], for which the “cryo-EM structure, 4.5 Å” value in assay [4] is “strong density in the nucleotide binding pocket corresponding to bound Mg-AMPPNP”.

B1: Cut7 motor domain (Cut7MD), residues 67–432 of the fission yeast kinesin-5 Cut7, P24339 67-432 (domain or fragment)
chain: DENETNINVVVRVRGRTDQEVRDNSSLAVSTSGAMGAELAIQSDPSSMLVTKTYAFDKVFGPEADQLMLFENSVAPMLEQVLNGYNCTIFAYGQTGTGKTYTMSGDLSDSDGILSEGAGLIPRALYQLFSSLDNSNQEYAVKCSYYELYNEEIRDLLVSEELRKPARVFEDTSRRGNVVITGIEESYIKNAGDGLRLLREGSHRRQVAATKCNDLSSRSHSIFTITLHRKVSSGMTDETNSLTINNNSDDLLRASKLHMVDLAGSENIGRSGAENKRARETGMINQSLLTLGRVINALVEKAHHIPYRESKLTRLLQDSLGGKTKTSMIVTVSSTNTNLEETISTLEYAARAKSIRNKPQNNQLVF
Turning to B1, in assay [5], the K0.5MT of the MT-stimulated steady-state ATPase of Cut7MD (Hanes–Woolf plot) worked out at 14.3 nM, the K0.5MT of the MT-stimulated steady-state ATPase of Cut7MD (Michaelis–Menten fit) turned out to be 19.9 nM, the Vmax of the MT-stimulated steady-state ATPase of Cut7MD (Hanes–Woolf plot) was found to be 1.19 ATP/s and the Vmax of the MT-stimulated steady-state ATPase of Cut7MD (Michaelis–Menten fit) is 1.25 ATP/s.
